Biological target: trimeric Spike, full B.1.351 variant (SARS-CoV-2, lineage B.1.351 (Beta), strain)
Assay: Luminex bead-based binding assay

B1: REGN10933 (antibody, V domains shown)
VH: QVQLVESGGGLVKPGGSLRLSCAASGFTFSDYYMSWIRQAPGKGLEWVSYITYSGSTIYYADSVKGRFTISRDNAKSSLYLQMNSLRAEDTAVYYCARDRGTTMVPFDYWGQGTLVTVSS
VL: DIQMTQSPSSLSASVGDRVTITCQASQDITNYLNWYQQKPGKAPKLLIYAASNLETGVPSRFSGSGSGTDFTFTISGLQPEDIATYYCQQYDNLPLTFGGGTKVEIK
fold reduced binding affinity: 15 fold

Source: PMC8452523 (Cell Reports, 2021)
